We go through 125 sequences from the supplement of paper PMC9112550, “Optimization of the antimicrobial peptide Bac7 by deep mutational scanning” (BMC Biology, 2022).

This series deals with Escherichia coli TOP10. The experiment in a line: shrunken log2 fold change of peptide-encoding DNA abundance (4.5 h post-induction vs induction); higher = less antimicrobial activity (less host growth inhibition). The note with it: time post-induction: 4.5 h; library: site-saturation at positions 5, 18, 19, 20.
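Further: peptides expressed intracellularly from a pBAD plasmid library in pooled LB shake-flask culture, induced with 0.3% L-arabinose, DNA abundance read by NGS, three biological replicates, DESeq2 with apeglm shrinkage.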

As to RRIRSRPPRLPRPRPRPPGSPRP, the “shrunken log2 fold change” value stood at 0.134. As to RRIRPRPPRLPRPRPRPIQVPRP, the “shrunken log2 fold change” value was found to be 0.0596. Regarding RRIRQRPPRLPRPRPRPPELPRP, the “shrunken log2 fold change” value stood at 0.109. Regarding RRIRLRPPRLPRPRPRPGAKPRP, the “shrunken log2 fold change” value is -0.548. With RRIRWRPPRLPRPRPRPPLCPRP the figure was 0.668; with RRIRGRPPRLPRPRPRPPPAPRP, 1.57. Regarding RRIRTRPPRLPRPRPRPVKNPRP, the “shrunken log2 fold change” value is -0.284. RRIRERPPRLPRPRPRPGQPPRP: the “shrunken log2 fold change” value turned out to be 0.0236. With RRIRPRPPRLPRPRPRPAGQPRP the figure was -0.0709; with RRIRTRPPRLPRPRPRPNCLPRP, -0.0709. Turning to RRIRTRPPRLPRPRPRPLCEPRP, the “shrunken log2 fold change” value was -0.0895. For RRIRNRPPRLPRPRPRPMVKPRP, the “shrunken log2 fold change” value was -0.00408.

RRIRSRPPRLPRPRPRPIDGPRP: the “shrunken log2 fold change” value stood at 0.0145. With RRIRERPPRLPRPRPRPGLDPRP the figure was -0.0204; with RRIRARPPRLPRPRPRPSWGPRP, 0.0646; with RRIRDRPPRLPRPRPRPMNDPRP, -0.126. As for RRIRNRPPRLPRPRPRPAFMPRP, the “shrunken log2 fold change” value is 0.0417.

Consider RRIRVRPPRLPRPRPRPRRVPRP, for which the “shrunken log2 fold change” value was 0.256. Take RRIRHRPPRLPRPRPRPRQRPRP: the “shrunken log2 fold change” value was 0.162. As to RRIRQRPPRLPRPRPRPMMWPRP, the “shrunken log2 fold change” value was determined as 0.0311. The result for RRIRKRPPRLPRPRPRPDRWPRP reads 0.683. Turning to RRIRMRPPRLPRPRPRPCMAPRP, the “shrunken log2 fold change” value worked out at 0.59. On to RRIRWRPPRLPRPRPRPPSEPRP, for which the “shrunken log2 fold change” value was 0.456.

Turning to RRIRIRPPRLPRPRPRPTVHPRP, the “shrunken log2 fold change” value stood at 0.0548. For the sequence RRIRWRPPRLPRPRPRPVSQPRP, the “shrunken log2 fold change” value was determined as 0.139. Turning to RRIRHRPPRLPRPRPRPMIKPRP, the “shrunken log2 fold change” value is -0.0726. For RRIRARPPRLPRPRPRPYGVPRP, the “shrunken log2 fold change” value was -0.12. In the case of RRIRMRPPRLPRPRPRPMVLPRP, the “shrunken log2 fold change” value was -0.0251. As for RRIRPRPPRLPRPRPRPRAGPRP, the “shrunken log2 fold change” value was 0.626. Regarding RRIRERPPRLPRPRPRPKSVPRP, the “shrunken log2 fold change” value was -0.00947. As to RRIRDRPPRLPRPRPRPTCPPRP, the “shrunken log2 fold change” value was -0.119.

For the sequence RRIRQRPPRLPRPRPRPNWFPRP, the “shrunken log2 fold change” value is -0.151.

Take RRIRCRPPRLPRPRPRPICHPRP: the “shrunken log2 fold change” value was 1.48. Consider RRIRARPPRLPRPRPRPPNLPRP, for which the “shrunken log2 fold change” value amounted to 0.342. Take RRIRKRPPRLPRPRPRPEDHPRP: the “shrunken log2 fold change” value is 0.247.

As for RRIRCRPPRLPRPRPRPWHIPRP, the “shrunken log2 fold change” value was -0.421. In the case of RRIRHRPPRLPRPRPRPDTEPRP, the “shrunken log2 fold change” value was -0.172. Regarding RRIRVRPPRLPRPRPRPVPPPRP, the “shrunken log2 fold change” value was 0.27. Take RRIRDRPPRLPRPRPRPWFLPRP: the “shrunken log2 fold change” value stood at 0.109. Take RRIRPRPPRLPRPRPRPWIKPRP: the “shrunken log2 fold change” value was -0.0265. With RRIRTRPPRLPRPRPRPGSHPRP, the “shrunken log2 fold change” value was -0.336. Regarding RRIRQRPPRLPRPRPRPDQQPRP, the “shrunken log2 fold change” value was found to be 0.0334. For RRIRHRPPRLPRPRPRPSHIPRP, the “shrunken log2 fold change” value was -0.307.

In the case of RRIRARPPRLPRPRPRPYHCPRP, the “shrunken log2 fold change” value was -0.0366. RRIRKRPPRLPRPRPRPDMAPRP: the “shrunken log2 fold change” value turned out to be 0.0491.

Consider RRIRGRPPRLPRPRPRPWPMPRP, for which the “shrunken log2 fold change” value stood at 0.31. For the sequence RRIRPRPPRLPRPRPRPIVYPRP, the “shrunken log2 fold change” value was 0.175.

For RRIRDRPPRLPRPRPRPAYGPRP, the “shrunken log2 fold change” value was -0.11.

For RRIRCRPPRLPRPRPRPFMWPRP, the “shrunken log2 fold change” value was -0.165. With RRIRNRPPRLPRPRPRPQGAPRP the figure was -0.149; with RRIRNRPPRLPRPRPRPWGNPRP, 0.00408; with RRIRMRPPRLPRPRPRPLNSPRP, -0.0401. Turning to RRIRARPPRLPRPRPRPVPEPRP, the “shrunken log2 fold change” value was determined as 0.499. Consider RRIRDRPPRLPRPRPRPQFMPRP, for which the “shrunken log2 fold change” value came out at 1.04.

RRIRLRPPRLPRPRPRPHARPRP: the “shrunken log2 fold change” value came out at 0.416. For RRIRNRPPRLPRPRPRPTMPPRP, the “shrunken log2 fold change” value was found to be 0.0915. The result for RRIRDRPPRLPRPRPRPSNDPRP reads 0.0978; that for RRIRGRPPRLPRPRPRPVYYPRP, 0.164. As to RRIRGRPPRLPRPRPRPMGHPRP, the “shrunken log2 fold change” value turned out to be 0.202. As to RRIRFRPPRLPRPRPRPAIMPRP, the “shrunken log2 fold change” value is -0.225. Regarding RRIRVRPPRLPRPRPRPYTTPRP, the “shrunken log2 fold change” value is -0.721. For RRIRCRPPRLPRPRPRPQQNPRP, the “shrunken log2 fold change” value worked out at 0.0237. On to RRIRKRPPRLPRPRPRPFLEPRP, for which the “shrunken log2 fold change” value amounted to 0.194. On to RRIRMRPPRLPRPRPRPYVAPRP, for which the “shrunken log2 fold change” value was -0.445. With RRIRPRPPRLPRPRPRPPDLPRP the figure was 0.366.

For RRIRARPPRLPRPRPRPCGVPRP, the “shrunken log2 fold change” value was determined as 0.255. For the sequence RRIRQRPPRLPRPRPRPMRDPRP, the “shrunken log2 fold change” value was found to be 0.0311. As for RRIRVRPPRLPRPRPRPEYFPRP, the “shrunken log2 fold change” value was -0.285. For the sequence RRIRCRPPRLPRPRPRPHHAPRP, the “shrunken log2 fold change” value turned out to be 0.0208.

For RRIRGRPPRLPRPRPRPDAPPRP, the “shrunken log2 fold change” value came out at 1.9. As to RRIRNRPPRLPRPRPRPAGQPRP, the “shrunken log2 fold change” value was 0.0891. In the case of RRIRNRPPRLPRPRPRPQPNPRP, the “shrunken log2 fold change” value is -0.047. With RRIRIRPPRLPRPRPRPFCMPRP, the “shrunken log2 fold change” value was -0.4.

As to RRIRKRPPRLPRPRPRPQHSPRP, the “shrunken log2 fold change” value was -0.288.

As to RRIRPRPPRLPRPRPRPNWGPRP, the “shrunken log2 fold change” value was -0.057. With RRIRNRPPRLPRPRPRPGNRPRP the figure was -0.0775. RRIRGRPPRLPRPRPRPKQVPRP: the “shrunken log2 fold change” value stood at 0.541.

As for RRIRSRPPRLPRPRPRPGPTPRP, the “shrunken log2 fold change” value was 0.788.

Consider RRIRQRPPRLPRPRPRPHCMPRP, for which the “shrunken log2 fold change” value was -0.0175. The result for RRIRFRPPRLPRPRPRPVMHPRP reads -0.461; that for RRIRARPPRLPRPRPRPENSPRP, 0.172; that for RRIRERPPRLPRPRPRPFKQPRP, -0.0138. In the case of RRIRCRPPRLPRPRPRPNPHPRP, the “shrunken log2 fold change” value was -0.158. Turning to RRIRQRPPRLPRPRPRPTLGPRP, the “shrunken log2 fold change” value was found to be 0.269. For RRIRSRPPRLPRPRPRPLMKPRP, the “shrunken log2 fold change” value worked out at 0.0556.

With RRIRPRPPRLPRPRPRPRWQPRP, the “shrunken log2 fold change” value was 0.754. For the sequence RRIRDRPPRLPRPRPRPHRGPRP, the “shrunken log2 fold change” value is -0.0201. RRIRMRPPRLPRPRPRPAQMPRP: the “shrunken log2 fold change” value is -0.0763. As for RRIRTRPPRLPRPRPRPETIPRP, the “shrunken log2 fold change” value was -0.0605. For the sequence RRIRIRPPRLPRPRPRPRQWPRP, the “shrunken log2 fold change” value worked out at 0.159. As for RRIRTRPPRLPRPRPRPVISPRP, the “shrunken log2 fold change” value is -0.21.

Turning to RRIRLRPPRLPRPRPRPETCPRP, the “shrunken log2 fold change” value is -0.0935. As to RRIRLRPPRLPRPRPRPGLNPRP, the “shrunken log2 fold change” value turned out to be 0.15. As to RRIRARPPRLPRPRPRPEQSPRP, the “shrunken log2 fold change” value came out at 0.119. As to RRIRKRPPRLPRPRPRPCEFPRP, the “shrunken log2 fold change” value was 0.252. Turning to RRIRCRPPRLPRPRPRPLEGPRP, the “shrunken log2 fold change” value stood at 0.15. In the case of RRIRQRPPRLPRPRPRPQIQPRP, the “shrunken log2 fold change” value is -0.411. With RRIRSRPPRLPRPRPRPGLTPRP the figure was 0.264; with RRIRMRPPRLPRPRPRPAPEPRP, 0.874; with RRIRHRPPRLPRPRPRPQQWPRP, -0.178. With RRIRQRPPRLPRPRPRPIDEPRP the figure was 3.38; with RRIRFRPPRLPRPRPRPVVMPRP, 0.297. With RRIRLRPPRLPRPRPRPPAHPRP the figure was 0.445. In the case of RRIRYRPPRLPRPRPRPRKQPRP, the “shrunken log2 fold change” value is -0.129. As to RRIRERPPRLPRPRPRPYSCPRP, the “shrunken log2 fold change” value was 0.0107. Take RRIRTRPPRLPRPRPRPAPCPRP: the “shrunken log2 fold change” value stood at 0.18. Consider RRIRRRPPRLPRPRPRPDRCPRP, for which the “shrunken log2 fold change” value was determined as 0.00426.

For the sequence RRIRSRPPRLPRPRPRPNISPRP, the “shrunken log2 fold change” value stood at 0.00233. Turning to RRIRDRPPRLPRPRPRPTELPRP, the “shrunken log2 fold change” value turned out to be 0.103. RRIRARPPRLPRPRPRPWNNPRP: the “shrunken log2 fold change” value was -1.02.

Turning to RRIRSRPPRLPRPRPRPWYMPRP, the “shrunken log2 fold change” value is -0.262. As for RRIRVRPPRLPRPRPRPQPPPRP, the “shrunken log2 fold change” value was 0.298.

Take RRIRWRPPRLPRPRPRPYNWPRP: the “shrunken log2 fold change” value is -1.06. Regarding RRIRFRPPRLPRPRPRPNRRPRP, the “shrunken log2 fold change” value was 0.048.

RRIRCRPPRLPRPRPRPCIIPRP: the “shrunken log2 fold change” value is -0.538.

RRIRYRPPRLPRPRPRPQQVPRP: the “shrunken log2 fold change” value was -0.0456. As to RRIRDRPPRLPRPRPRPVCWPRP, the “shrunken log2 fold change” value was found to be 0.747. For RRIRPRPPRLPRPRPRPQYEPRP, the “shrunken log2 fold change” value is -0.583. In the case of RRIRTRPPRLPRPRPRPIYTPRP, the “shrunken log2 fold change” value is -0.46. Consider RRIRHRPPRLPRPRPRPFGHPRP, for which the “shrunken log2 fold change” value is -0.233. For RRIRVRPPRLPRPRPRPLHHPRP, the “shrunken log2 fold change” value is -0.253.

With RRIRSRPPRLPRPRPRPQPLPRP, the “shrunken log2 fold change” value was determined as 0.256.

Turning to RRIRARPPRLPRPRPRPACDPRP, the “shrunken log2 fold change” value was found to be 0.851. Take RRIRLRPPRLPRPRPRPHERPRP: the “shrunken log2 fold change” value was 0.274. With RRIRYRPPRLPRPRPRPNFPPRP, the “shrunken log2 fold change” value was -0.313.
